Assay: yeast display, Sf9 membrane polyspecificity reagent, FACS + sequencing; frameworks hold sequencing errors
How it was run: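 Galactose-induced (36–48 hours) yeast carrying a synthetic nanobody display library were exposed to 10% biotinylated, detergent-solubilized Sf9 membrane reagent at 4 °C for 1 hour. FACS followed streptavidin microbead enrichment, using low and high (top ~1%) gates for expression (anti-HA) and reagent binding (streptavidin). Colony PCR, MiSeq 2 × 250 sequencing and CDR-length filtering followed. Labels for polyreactivity reflect the gate of origin.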

Sequence	polyreactivity (PSR sort gate)
QVQLVESGGGLVQAGGSLRLSCAASGFTFTRYAMGWYRQAPGKERELVAAISRSGTSTYYADSVKGRFTISRDNAKNTVYLQMNSLKPEDTAVYYCAAYFGTTGRYALYDYWGQGTQVTVSS	high polyreactivity
QVQLVESRGGLVQAGGSLRLSCAASGFIFLPYAMGWYRQAPGKERELVATINSGDSTYADSVKGRFTISRDNAKNTVYLQMNSLKPEDTAVNYCNAYWLVVPVDLDYWGQGTQVTVSS	low polyreactivity
QVQLVESGGRLVQEGGSLRLSCAASGRTFSKYAMGWYRQAPGKERELVAAITWRGGRTYYADSVNGRFTISRDNAKNTVYLQMNSLKPEDTAVYYCAADPSIYRIYQYTNRYDYWGQGTQVTVSS	high polyreactivity
QVQLEESGGGFVQAGGSLRLSCAASGFIFRRYAMGWYRQAPGKERELVAAISWRSGSTYYADSVKGRFTISRDNAKNTVYSPMKCLKPEDTAVYYCAAKDQATYQLYYWGQGTQVTVSS	high polyreactivity
QVQLVESGGGLVQAGGSLRLSCAATGSTRYYAMGWYRHAPGKERELVASIASIGGSTSYADSVKGRFTISRDNAKNTVYLQMNSLKPEDTAVYYCATRSLVYSARAAGLIQFDHWGQGTQVTVSS	low polyreactivity
QVQLVESGGGLVQAGGSLRLSCAASGFIFILNAMGWYRQAPGKERELVAGISISGGSTYYADSVKGRFTISRDNAKNTVYLQMNSLKPEDTAVYYCAAPDGDTRVSDQAYDYWGQGTQVTVSS	low polyreactivity
QVQLVESGGGLVQAGGSLRLSCASSGNIFRKYAMAWYRQAPGKERELVAITSGTNTYYADSVKGRFTISRDNAKNTVYVQMNSLKPEDSAVYYCNKSGFRSSHKYDYWGQGTQVTVSS	low polyreactivity
QVQLVESGGGLVQAGGSLRLSCAASGFTFFYNAMGWYSQAPGKESELVASITVSTSGTDYADSVKGRFTISRDNAKNTVYLQMNSLKPEDTAVYYCATDLVFVYSDLQDTAYYWGQGTQVTVSS	low polyreactivity
QVQLVESGGGLVQAGGSLRLSCAASGSIFNSNGMGWYRQAPGKERELVAAITGGGSTNYADSVKGRFTISRDYAKNTVYLQMNSLKPEDTAVYYCAKRSYRTHTYDYWGQGTQVTVSS	low polyreactivity
QVHLVESGGGLVQAGGSLRLSCAASGNSFTGNAMGWYRQAPGKETELVAALSKRGGSTFYADSVKGRFTISRDNPKNTVYLQLNRLKPEDTAVYYCNALRRGVRDPYGYWGQGTQVTVSS	high polyreactivity
QVQLVESGGGLVQAGGSLRLSCAASGFTFARYAMGWYRQAPGKERELVAAISWTGARTYYADSVKGRFTISRDNAKNTVYLQMNSLKPEDTAVYYCNAVSGSSNFDYWGQGTQVTVSS	high polyreactivity
QVQLVESGGGLVQAGGSLRLSCAASGRTFYSNTIGWYRQAPGNESELVAAINRGGSTYYADSVKGRFTISRDNAKNTVYFQMNSLKPEDTAVYYCAVGYAHSSNRRYYYKKTHGYWGQGTQVTVSS	low polyreactivity
QVQLVESGGGLVQAGGSLRLSCAASGSTFYQNAMGWYRQAPGKERELVAAISSSGRTYYADSVKGRFTISRDNAKNTVYLQMNSLKPEDTAVYYCAVGAYGSLYSIRVAYGSMDYWGQGTQVTVSS	high polyreactivity
QVQLVESGGGLVQAGGSLSLRFAASGFIFYRYAMGWYRQAPWKERELVAAITRSVTSTYYADSVKGRFTISRDNAKNTVYLQMNSLKPEDTAVYYCILRSRYDYYYWGQGTQVTVSS	high polyreactivity
QVQLVESGGGLVQAGGSLRLSCAASGSISSKNAMGWYRQAPGKEREFGAVISGTGGSTYYADSVKGRFTISRDNAKNTVYLQMNSLKPEDTAVYYCAAAASSIVSYGYTWTYGYWGQGTQVTVSS	low polyreactivity
QVQIVESGGGLVQAGGSLRLSCADSGGTFRRYAMGWYRQAPGKEREFVARIYDGGTTYYADSVKGRFTISRDNAKNTVYLQMNSLKPEDTAVYYCAAYPYSRYYYYSNYYWGQGTQVTVSS	high polyreactivity
QVQLVESGGGLVQAGGSLRLSCAASGRIFNFNGMGWYRQAPGKERELVAAITSGGSTYYADSVKGRFTISRDNAKNTVYLQMNSLKPEDTAVYYCAAQNAWWSNGRSYDYWGQGTQVTVSS	low polyreactivity
QVQLVESGGGLVQAGGSLRLSCAASGFTFVRYTMGWYRQAPGKERELVAVIRRGGSTYYADSVKGRFTISRDNAKNTVYLQMNSLKPEDTAVYYCNALSALAVEDGYWGQGTQVTVSS	low polyreactivity
QVQLVESGGGLVQAGGSLRLSCAASGRTFYHYTMGWYTQAPGKERELVAAISSGGSTNYADSVKGRFTISRDNAKNTVYLQMNSLKPEDTAVYYCAARYRGWSGGYDYWGQGTQETVSS	high polyreactivity
QVQLVESGGGLVQAGGSLRLSCAASGFTFGRYAMGWYRQAPGKVRELVAAINWSGGSTYYADSVKGRFTISRDNAKNTVYLQMNSLKPEDPAVYYCNKGVSRSSVRGDYWGQGTQVTVSS	high polyreactivity
QVQLVESGGGLVQAGGSLRLSCAASGRTFWTNTMGWYRQAPGNEREFVAAITFGDGSTSYADSVKGRFTISRDNAKNTVYLQMNCLIAEVTAVYYCAKRWRRRFVDVWSLYDYWGQGTQVTVSS	low polyreactivity
QVQLQESCGGLVQAGGSQRLSCAASAYIFYFQYMGWYRQAPGKEREFVAAISDGANTNYADSVKGRFTISRDNAKNTEYLQMNSLKPEDTAVYYCAVYADENFYYIYWGQGTEVTVSS	low polyreactivity

Sequence	polyreactivity (PSR sort gate)
QVQLVESGGGLVQAGGSLRLSCAASGSIFDINAMGWYRPAPGKERELVADIRGGDSTNYADSVKGRFTISRDNATNTVYLQMNSLKPEDTAVYYSAARWRRSKYGVYPQRPYDYWGQGTQVTVSS	high polyreactivity
QVQLVESGGRLVQAGGSLRLSCAASGSIFGYNAMGWYRQAPGKESELVAAIDKSGGNTYYADSVKGRFTISRDNANYTVYLQMNSLKPEDTAVDYCAVRAYRHRSGYSYGYWGQGTQVTVSS	high polyreactivity
QVQLVESGGGLVQAGGSHRLSCAASGLTLQRYTLGSYRQAPGKQSELVAAISRSGGGTYYADSVKGRFTISRDNAKNTVYLQMNSVKPEDTAVYYCAARGYTSYKHFGYWGQGTQVTVSS	high polyreactivity
QVQLVESGGGLVQAGGSLRLSCAASGSIFRGNAMGWYRQAPGKERELVAGINRAGSTKYADSVKGRFTISRDNAKNTVYLQMNSLKPEDTAVYYCAAVRYERGLWSDYWGQGTQVSVSS	high polyreactivity
QVQLVESGGGLVQAGGSLRLSCASSGFIFKRYAMGWYRQAPGKERELVAAITSGGSTHYADSVKGRFTISRDNAKNTVYLQMNSLKPEDTAVYYCATRRYKWGVRYDYWGQGTQVTVSS	high polyreactivity
QVQLVESGVGLVQAGGSLRLSCAASGSIFGYYVMGWYRQAPGKERELVAAISGSDSSTYYADSVKGRFTISRDNAKNTVYLQMNRLKPEDTAVYYCNADQRYYPVEFDYWGQGTQVTVSS	low polyreactivity
QVQLVESVGGLVQAGGSLLLSCAASGFTFGPYAMGWYRQAPGKERELVAAISRSGGSTYYSDSVKGRFTISRYNAKNTVYLQLNSLKPEDTAVYYCAACSAYLWGQGTQVTVSS	low polyreactivity
QVQLVESGGGLVQAGGSLRLSCAASGSIVTSYAIGWYRQAPGQERELVATITRRGGSTYYADSVKGRFTISRDNSKNTVYLQMNSLKPEDTAVSYCTARSSTIVYAGDYWGLGTQVTVSS	low polyreactivity
QVQLVESGGGLVQAGGSLRLSCAASGSIFWSYAMGWYRQAPGKERELVAAINWSGGRTYYADSVKGRFTISRDNAKNTVYLQMNSLKPEDTAVYYCNAPVHTAQGDEYDYWGQGTQVTVSS	high polyreactivity
QVQLVESGGGLVQAGGSLRLSCAASGFTFSYYAMGWYRQAPGKERELVAVISDRGGITYYADSVKGRFTISRDIAKITVYLQMNSLKPEDTAVYYCAAQNPRYNYRYYYWGQGTQVTVSS	low polyreactivity
QVQLLESGGGLVQAGGSLRLSCDASGFTFVAYAMGWYRQAPGKERELVAVISRGGSTYYADSVKGRFTISRDNAKNTVYLQMNSLKPEDTAVYYCAATFIHSYGKFFYWGQGTQVTLSS	low polyreactivity
QVQLVESGGGLVQAGGSLRLSCAASGRISYTYSAMGWYRQAPGKERELVAAITRRGGSTSYADSVKGRFTISRDNAKNTVYLQMNSLKPDDTAVYYCAAVGSFHIVDYWGQGTQVTVSS	high polyreactivity
QVHLVESGGGLVQAGGRLLLSCAASGLILRTYGMGWYRQAPRKERELVAVISSGGSTYYADSVNGRFTISRDNAKNTVYLQMNSLKPEDTAVYYCAVRSSWYEGDYWGQGTQVTVSS	low polyreactivity
QVQLVESGGGLVQAGGSLRLSCAASGSTFYHNVMGWSRQAPGKERELVASIDTGDSTNYADSVKGRFTISRDNAKNTVYLQMNSLKPEDTAVYYCNADSYPALNKRGYDYWGQGTQVTVSS	low polyreactivity
QVQLVESGGGLVQAGGSLRLSCAASGSIFASNALGWYRQAPGKERELVAAIDTSGGSTYYADSVKGRFTISRDNAKNTVYLQMNSLKPEDTAVYYCNTDWRDEYYPRYRASKFDYWGQGTQVTVSS	low polyreactivity
QVQLVESGGGLVQAGGSLRLSCAASGFTFPGDAMGWYRQAPGKERELVAAIDTSGGNTYADSVKGRFTISRDNAKNTVYLQMNSLKPEDTAVYYCAADYYYVYSSFGHYYWGQGTQVTVSS	low polyreactivity
QDQLVESGGGLVQAGGSLRLSCAASGRTFGYYVMGWYRQAPGKERELVAAISRSGGTTYYADSVKGRFTISRDNAKNTVYLQMNSLKPEDTAVYYCATDSRTGYDYWGQGTQVTVSS	high polyreactivity
QVQLVESGGGLVKAGGSLRLSCAASGRTFALYAMGWYRLAPGKERELVAGITFRGGSTYYADSVKGRFRISRDNAKNTVYLQMNSLKPEDTAVYYCAAERWRWYYSWTMDYWGQGTQVTVSS	high polyreactivity
QVQLVESGGGLVQAGGSLRLSCAASGSIFVSYAMGWYRQAPGKERELVAAITSAGTTYYADSVKGRFTISRDNAKNTVYLQMNSLKPEDTAVYYCNADTYGYYLWTGAVSAGDDYWGQGTQVTVSS	low polyreactivity
EDELVESGGGIVQAGGSLRLSCAATGSIIVVNAMVWYRQAPRKERELVAAISRGGITNYADSVKGRFTISRDNAKNTVYLQMNSLKPEDTAVYYCNARGSRWVKPERDYWGQGTQVTVSS	low polyreactivity
HVQLVESGRGLFQAGGSLRLSCAASGFIFQYYAMGWYRQAPGKERELVAAISFGGSTYYADSVKGRFTISRDNAKNTVYLQMNSLKPEDTAVYYCAGDYYSWYGYDYWGQCTQVTVSS	low polyreactivity

— the nanobody polyreactivity screen of Harvey et al. (2022)
